Measured values reported in US9188587.

Assays:
[1] = biological target: I^125-αDTX-labelled VGKCs (Kv1 complexes) in digitonin-solubilised rabbit cortex extract
[2] = biological target: I^125-αDTX-labelled VGKCs (Kv1 complexes) in digitonin-solubilised rabbit cortex extract; remark: listed apart in the source

In the case of “goat anti Lgi1 antibody (Santa Cruz C19 sc-9583 and N18 sc-9581)”, the percent of total I^125-αDTX binding sites precipitated [1] was greater than 60% and the percent of αDTX binding sites immunoprecipitated [2] was 61%.
